The values that follow come from patent US9845340B2, “Peptides that specifically bind HGF receptor (cMet) and uses thereof” (Dyax Corp., priority 2003, dated 2017).

The target of assay [1] is T1, cMet-Fc fusion protein (or similar target) (Mus musculus, UniProt P16056).
T1 construct: Fc
The experiment in a line: Fluorescence anisotropy / polarization direct binding, mouse cMet. Details: key: NB = no binding. The note with it: fluorescein-labeled peptide. Here is the method:
Fluorescence anisotropy measurements were performed in 384-well microplates in a volume of 10 μL in binding buffer (PBS, 0.01% Tween-20, pH 7.5) using a Tecan Polarion fluorescence polarization plate reader ([…]). The concentration of fluorescein-labeled peptide was held constant (20 nM) and the concentration of cMet-Fc fusion protein (or similar target) was varied. Binding mixtures were equilibrated for 10 minutes in the microplate at 30 C before measurement. The observed change in anisotropy was fit to the equation below via nonlinear regression to obtain the apparent KD. This equation (1) assumes that the synthetic peptide and cMet form a reversible complex in solution with 1:1 stoichiometry.
[formula] where robs is the observed anisotropy, rfree is the anisotropy of the free peptide, rbound is the anisotropy of the bound peptide, KD is the apparent dissociation constant, cMet is the total cMet concentration, and P is the total fluorescein-labeled peptide concentration. KD was calculated in a direct binding assay (KD,B) and therefore these values represent cMet binding to the fluorescein labeled peptide.
Background: Fluorescence polarisation rises when a labelled molecule tumbles more slowly, as on binding a larger partner.

The target of assay [2] is T2, 3T3 cells that over-express human cMet (Homo sapiens, UniProt P08581).
T2 construct: expressed in transfected cells; host or cells: 3T3 cells
T2 sequence (P08581 25-1390): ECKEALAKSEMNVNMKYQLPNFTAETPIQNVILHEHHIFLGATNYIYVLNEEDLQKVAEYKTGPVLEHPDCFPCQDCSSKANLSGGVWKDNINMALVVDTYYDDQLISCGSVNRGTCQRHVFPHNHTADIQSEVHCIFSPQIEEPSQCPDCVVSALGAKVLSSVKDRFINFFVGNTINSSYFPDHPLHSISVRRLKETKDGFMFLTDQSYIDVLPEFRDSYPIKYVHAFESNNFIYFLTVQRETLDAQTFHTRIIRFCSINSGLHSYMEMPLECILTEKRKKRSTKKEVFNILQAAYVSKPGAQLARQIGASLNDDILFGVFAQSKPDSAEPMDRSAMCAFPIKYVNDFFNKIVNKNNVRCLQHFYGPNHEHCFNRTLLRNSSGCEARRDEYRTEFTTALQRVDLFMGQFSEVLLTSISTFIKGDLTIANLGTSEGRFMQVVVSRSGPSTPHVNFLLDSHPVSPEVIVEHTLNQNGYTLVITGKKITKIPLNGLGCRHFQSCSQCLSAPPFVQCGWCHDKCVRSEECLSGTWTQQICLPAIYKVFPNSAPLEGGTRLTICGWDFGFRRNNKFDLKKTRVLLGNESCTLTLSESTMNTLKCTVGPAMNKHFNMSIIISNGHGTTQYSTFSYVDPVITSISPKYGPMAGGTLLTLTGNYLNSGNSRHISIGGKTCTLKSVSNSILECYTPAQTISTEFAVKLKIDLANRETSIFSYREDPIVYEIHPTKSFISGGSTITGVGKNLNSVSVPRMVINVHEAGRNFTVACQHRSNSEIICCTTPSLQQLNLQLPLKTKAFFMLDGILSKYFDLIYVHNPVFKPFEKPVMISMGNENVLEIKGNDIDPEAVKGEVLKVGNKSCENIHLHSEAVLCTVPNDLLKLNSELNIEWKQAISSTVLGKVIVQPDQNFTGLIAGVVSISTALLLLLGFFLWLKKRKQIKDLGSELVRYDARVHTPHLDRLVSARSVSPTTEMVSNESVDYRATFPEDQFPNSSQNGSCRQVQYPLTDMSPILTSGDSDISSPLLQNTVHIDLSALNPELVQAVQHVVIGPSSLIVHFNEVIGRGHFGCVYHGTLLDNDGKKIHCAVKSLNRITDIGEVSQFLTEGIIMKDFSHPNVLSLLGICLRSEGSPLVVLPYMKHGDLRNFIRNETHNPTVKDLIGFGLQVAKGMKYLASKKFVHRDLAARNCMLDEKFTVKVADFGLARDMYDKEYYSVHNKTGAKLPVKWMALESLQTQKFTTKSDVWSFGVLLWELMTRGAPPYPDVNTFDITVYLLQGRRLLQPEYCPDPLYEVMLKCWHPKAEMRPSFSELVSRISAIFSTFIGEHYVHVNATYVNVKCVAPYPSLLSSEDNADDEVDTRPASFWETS
Put plainly: Whole cell ELISA of peptide-displaying phage. As to conditions: phage isolate; 3T3 cells expressing human cMet vs. non-expressing 3T3 cells. The assay is classed as cell-based. In short, it runs like this: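 Phage displaying peptides, pre-blocked 1 h at 37 °C, incubated 1 h at RT on glutaraldehyde-fixed (0.1%, 12 min, 37 °C) cMet-overexpressing 3T3 cells (10^5 per well). Binding read out by HRP anti-M13 antibody after PBST washing.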
On the technique in general: An ELISA detects its analyte on a solid surface through an enzyme-linked reagent.

In assay [3] the target is T3, cMet-Fc fusion protein (Homo sapiens, UniProt P08581). Put plainly: Protein phage ELISA: peptide-displaying phage binding to soluble cMet-Fc versus TRAIL-Fc. The note with it: phage isolate; cMet-Fc vs. TRAIL-Fc. In short, it runs like this:
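Phage displaying selected peptides were incubated 2 h at room temperature on wells coated with 0.5 μg/mL cMet-Fc, with TRAIL-Fc coating as the unrelated-Fc specificity control.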

The target of assay [4] is T3, cMet-Fc fusion protein. The experiment in a line: HGF competition protein ELISA. The note with it: % of binding in the absence of HGF. Here is the method: This competition ELISA identifies peptides that serve as “HGF antagonistic peptides”, peptides that block HGF-mediated signaling events (e.g., proliferation). These assays were conducted using the peptide-displaying phage discovered from the initial selection and screening campaigns using the first generation peptide libraries. Briefly, 96-well plates were coated overnight at 4 C with 0.5 μg/mL of cMet-Fc fusion protein or TRAIL-Fc fusion protein (background). The plates were blocked for 2 hours at 37 C with 3% BSA in PBST. The plates were washed with PBST, and 100 μL of HGF (either at 100 ng/mL or 500 ng/mL in PBST) was added to each well. The plates were incubated for 30 minutes at room temperature after which the plates were washed with PBST and 70 μL of HGF (143 ng/mL or 714 ng/mL) or 70 μL of PBST was added to the respective wells. This was followed by an addition of 30 μL of peptide-displaying phage overnight culture to each well. The plates were incubated for 2 hours at room temperature, washed with PBST and cMet-binding peptide-displaying phage was detected using an HRP-conjugated anti-M13 antibody.

T3 sequence (P08581 25-307 limits assumed): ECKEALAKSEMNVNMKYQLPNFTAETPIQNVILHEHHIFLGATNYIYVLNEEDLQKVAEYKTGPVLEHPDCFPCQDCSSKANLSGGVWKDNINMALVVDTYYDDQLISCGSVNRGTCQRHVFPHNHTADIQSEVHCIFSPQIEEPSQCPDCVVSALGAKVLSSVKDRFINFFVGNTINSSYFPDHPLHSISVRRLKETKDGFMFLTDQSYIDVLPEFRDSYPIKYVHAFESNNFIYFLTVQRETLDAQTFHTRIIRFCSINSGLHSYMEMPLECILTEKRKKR
T3 sequence (P08581 with tags, fused parts or gaps limits assumed): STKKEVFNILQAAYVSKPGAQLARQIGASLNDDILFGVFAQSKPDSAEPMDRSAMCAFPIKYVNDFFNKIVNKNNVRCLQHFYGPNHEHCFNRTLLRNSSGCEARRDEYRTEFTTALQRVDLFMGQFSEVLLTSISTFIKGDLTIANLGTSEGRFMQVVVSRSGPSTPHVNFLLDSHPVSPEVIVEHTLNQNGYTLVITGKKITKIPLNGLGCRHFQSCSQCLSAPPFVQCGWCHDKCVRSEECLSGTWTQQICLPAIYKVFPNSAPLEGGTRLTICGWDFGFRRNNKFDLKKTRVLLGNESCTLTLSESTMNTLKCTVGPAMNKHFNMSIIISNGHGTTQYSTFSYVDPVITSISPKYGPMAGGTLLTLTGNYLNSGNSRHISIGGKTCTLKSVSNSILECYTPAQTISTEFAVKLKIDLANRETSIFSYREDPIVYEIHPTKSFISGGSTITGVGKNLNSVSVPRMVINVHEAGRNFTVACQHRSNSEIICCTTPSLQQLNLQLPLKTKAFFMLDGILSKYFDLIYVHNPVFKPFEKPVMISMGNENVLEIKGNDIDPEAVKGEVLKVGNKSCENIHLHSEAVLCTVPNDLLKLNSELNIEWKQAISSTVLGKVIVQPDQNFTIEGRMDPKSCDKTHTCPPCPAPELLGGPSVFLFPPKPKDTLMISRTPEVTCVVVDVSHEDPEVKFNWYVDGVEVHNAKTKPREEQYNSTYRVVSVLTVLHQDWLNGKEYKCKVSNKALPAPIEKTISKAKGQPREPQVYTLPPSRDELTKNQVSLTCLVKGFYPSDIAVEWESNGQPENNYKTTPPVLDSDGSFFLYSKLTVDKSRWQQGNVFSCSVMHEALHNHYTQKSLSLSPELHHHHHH
T1 sequence (P16056 25-306 limits assumed): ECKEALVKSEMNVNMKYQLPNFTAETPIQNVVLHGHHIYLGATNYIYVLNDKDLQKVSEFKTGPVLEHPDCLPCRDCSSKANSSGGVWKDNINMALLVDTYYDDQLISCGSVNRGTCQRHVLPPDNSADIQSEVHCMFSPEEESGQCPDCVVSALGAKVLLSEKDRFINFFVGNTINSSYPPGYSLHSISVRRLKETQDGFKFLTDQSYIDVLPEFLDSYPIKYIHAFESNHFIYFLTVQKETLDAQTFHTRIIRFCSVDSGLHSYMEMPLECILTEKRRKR
T1 sequence (P16056 307-929 limits assumed): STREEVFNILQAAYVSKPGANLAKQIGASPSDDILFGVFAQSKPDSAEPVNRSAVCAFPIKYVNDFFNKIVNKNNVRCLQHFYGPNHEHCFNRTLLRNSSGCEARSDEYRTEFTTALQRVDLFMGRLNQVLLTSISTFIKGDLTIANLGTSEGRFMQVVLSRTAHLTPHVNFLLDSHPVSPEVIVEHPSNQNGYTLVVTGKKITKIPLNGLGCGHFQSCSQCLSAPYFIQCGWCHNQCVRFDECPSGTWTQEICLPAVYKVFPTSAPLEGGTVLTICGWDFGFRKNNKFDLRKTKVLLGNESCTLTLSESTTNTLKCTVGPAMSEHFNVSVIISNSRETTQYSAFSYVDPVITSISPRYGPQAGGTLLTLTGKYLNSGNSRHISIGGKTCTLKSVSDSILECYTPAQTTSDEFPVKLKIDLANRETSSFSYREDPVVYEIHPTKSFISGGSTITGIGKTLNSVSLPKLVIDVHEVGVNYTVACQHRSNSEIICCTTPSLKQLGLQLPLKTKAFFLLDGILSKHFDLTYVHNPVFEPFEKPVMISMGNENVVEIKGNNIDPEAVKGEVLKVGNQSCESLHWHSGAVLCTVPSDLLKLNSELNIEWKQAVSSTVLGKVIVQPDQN

For the compound `CSCC[C@@H]1NC(=O)[C@@H](NC(=O)[C@H](CCSC)NC(=O)[C@H](CCC(=O)O)NC(=O)[C@@H]2CCCN2C(=O)[C@H](CO)NC(=O)CNC(C)=O)CSSC[C@@H](C(=O)N[C@@H](CC(N)=O)C(=O)N[C@@H](Cc2c[nH]cn2)C(=O)N[C@@H](Cc2c[nH]cn2)C(=O)N[C@@H](C)C(=O)N2CCC[C@H]2C(=O)NCC(=O)NCC(=O)NCC(=O)N[C@@H](CCCCNC(=O)c2ccc3c(c2)C(=O)OC32c3ccc(O)cc3Oc3cc(O)ccc32)C(N)=O)NC(=O)[C@@H]2CCCN2C(=O)[C@H](Cc2ccc(O)cc2)NC(=O)[C@H](CC(C)C)NC(=O)[C@H](Cc2ccccc2)NC(=O)[C@@H]2CCCN2C(=O)[C@H](Cc2ccccc2)NC(=O)[C@H](CCSC)NC1=O` [SEQ ID NO: 369], the “Kd (mouse)” value in assay [1] was “NB”.

Regarding `CC(=O)NCC(=O)N[C@@H](CC(=O)O)C(=O)N[C@@H](Cc1ccc(O)cc1)C(=O)N[C@@H](CO)C(=O)N[C@@H](CCC(=O)O)C(=O)N[C@H]1CSSC[C@@H](C(=O)N[C@@H](Cc2ccc(O)cc2)C(=O)N[C@@H](CC(=O)O)C(=O)N[C@@H](CCCNC(=N)N)C(=O)N[C@@H](CC(=O)O)C(=O)N2CCC[C@H]2C(=O)NCC(=O)NCC(=O)NCC(=O)N[C@@H](CCCCNC(=O)c2ccc3c(c2)C(=O)OC32c3ccc(O)cc3Oc3cc(O)ccc32)C(N)=O)NC(=O)[C@H](CCCCN)NC(=O)[C@H](C(C)C)NC(=O)[C@H](CCC(=O)O)NC(=O)[C@H](Cc2ccccc2)NC(=O)[C@H](CO)NC(=O)[C@H](CC(=O)O)NC(=O)[C@@H]2CCCN2C(=O)[C@H](CCC(=O)O)NC(=O)[C@H](Cc2ccccc2)NC(=O)[C@H](Cc2ccccc2)NC1=O` [SEQ ID NO: 399], the “WC ELISA” value in assay [2] is on record as 1.30 fold over background. Moreover, the “Protein ELISA” value at cMet-Fc fusion protein [3] is 11.3 fold over background. Also, the “Kd (mouse)” value in assay [1] is on record as “NB”.

With “AGWYNCSGENFWNCKWIGT (Synthetically generated cMet-binding peptide sequence) [SEQ ID NO: 082]”, the “WC ELISA” value in assay [2] is 1.43 fold over background. In addition, in the assay with cMet-Fc fusion protein [4], the “HGF 100 ng/mL” value stood at 61%. For the same compound, the “HGF 500 ng/mL” value with cMet-Fc fusion protein [4] (HGF 500 ng/mL) came to 79%. The “Protein ELISA” value with cMet-Fc fusion protein [3] is recorded as 14.3 fold over background.

As for “GSILYCINRNDPQCPYTAP (Synthetically generated cMet-binding peptide sequence) [SEQ ID NO: 101]”, the “WC ELISA” value in assay [2] was found to be 1.27 fold over background. In addition, in the assay with cMet-Fc fusion protein [4], the “HGF 100 ng/mL” value came to 9S%. Also, the “Protein ELISA” value in the assay with cMet-Fc fusion protein [3] was determined as 3.0 fold over background.

As to `CC(=O)N[C@@H](C)C(=O)N[C@@H](CCC(N)=O)C(=O)N[C@@H](Cc1c[nH]cn1)C(=O)N[C@@H](Cc1c[nH]c2ccccc12)C(=O)N[C@@H](CC(=O)O)C(=O)N[C@@H](Cc1ccc(O)cc1)C(=O)N[C@@H](CC(=O)O)C(=O)N[C@@H](CO)C(=O)NCC(=O)N[C@@H](CO)C(=O)N[C@@H](CC(=O)O)C(=O)N[C@@H](Cc1ccccc1)C(=O)N[C@@H](Cc1c[nH]c2ccccc12)C(=O)N[C@@H](Cc1ccccc1)C(=O)N1CCC[C@H]1C(=O)N[C@H](C(=O)N[C@@H](Cc1ccccc1)C(=O)N[C@@H](Cc1ccccc1)C(=O)N[C@@H](CC(C)C)C(=O)N[C@@H](CCC(=O)O)C(=O)N[C@@H](Cc1c[nH]cn1)C(=O)N[C@@H](Cc1c[nH]cn1)C(=O)NCC(=O)NCC(=O)NCC(=O)N[C@@H](CCCCNC(=O)c1ccc2c(c1)C(=O)OC21c2ccc(O)cc2Oc2cc(O)ccc21)C(N)=O)C(C)C` [SEQ ID NO: 475], in assay [2], the “WC ELISA” value stood at 1.30 fold over background. Further, on cMet-Fc fusion protein [3], the “Protein ELISA” value was determined as 3.5 fold over background.

In the case of “AGIWFCNNEEKSCWAYGT (Synthetically generated cMet-binding peptide sequence) [SEQ ID NO: 040]”, the “WC ELISA” value in assay [2] stood at 1.37 fold over background. In addition, the “Protein ELISA” value in the assay with cMet-Fc fusion protein [3] was 3.0 fold over background.

Take “AQHMDPAEWDWFIRIYSPVVNP (Synthetically generated cMet-binding peptide sequence) [SEQ ID NO: 487]”: the “WC ELISA” value in assay [2] turned out to be 1.80 fold over background. Further, the “Protein ELISA” value with cMet-Fc fusion protein [3] is 3.0 fold over background.
